From PMC3344845 (2012) come the findings set out here.

The assay has as its target chicken avidin (Gallus gallus (Chicken), UniProt P02701). Kind of assay: ITC. In general terms: In ITC the heat of successive injections is recorded.

Chain of chicken avidin (P02701 25-152): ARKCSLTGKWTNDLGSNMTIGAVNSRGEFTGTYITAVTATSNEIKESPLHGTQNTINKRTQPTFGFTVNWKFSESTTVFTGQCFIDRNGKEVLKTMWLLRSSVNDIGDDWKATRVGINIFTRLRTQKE

SEKLSNTK (protein) [Brad-tag (synthetic peptide SEKLSNTK)]: the binding result is on record as “no binding”.
